Source: publication doi:10.1101/2024.11.06.622243

Target: T1, HA-Halo-MRAP2 (human), Q96G30
T1 chain: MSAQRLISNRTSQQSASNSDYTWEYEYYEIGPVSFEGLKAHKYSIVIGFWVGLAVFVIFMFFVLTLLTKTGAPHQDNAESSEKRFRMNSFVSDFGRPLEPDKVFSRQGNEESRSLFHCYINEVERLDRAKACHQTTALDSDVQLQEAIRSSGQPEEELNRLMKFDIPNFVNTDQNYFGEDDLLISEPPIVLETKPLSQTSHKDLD
Assay: single-molecule pull-down (SiMPull); one-colour SiMPull with photobleaching step analysis: HA-Halo-tagged protein labelled on HEK293 cells with membrane-impermeable CA-Sulfo646, lysed in 0.5% LMNG/0.05% CHS, immobilised by biotinylated anti-HA antibody on a PEG-passivated slide, TIRF imaging
Settings: remark: other sources report otherwise

- percent of molecules with one bleaching step: 68%
- percent of molecules with three or four bleaching steps: < 5%
- percent of molecules with two bleaching steps: 28%
B1: HA-Halo-MRAP2, Q96G30 1-205 (natural protein)
chain: MSAQRLISNRTSQQSASNSDYTWEYEYYEIGPVSFEGLKAHKYSIVIGFWVGLAVFVIFMFFVLTLLTKTGAPHQDNAESSEKRFRMNSFVSDFGRPLEPDKVFSRQGNEESRSLFHCYINEVERLDRAKACHQTTALDSDVQLQEAIRSSGQPEEELNRLMKFDIPNFVNTDQNYFGEDDLLISEPPIVLETKPLSQTSHKDLD
modifications: here or on the partner: CA-Sulfo646 dye on the Halo tag; CA-Sulfo646 dye on the Halo tag
